Experimental data taken from paper PMC4453223.

Biological target: microtubule (MT) filaments

Sequence of DmK-4AA (P17210 other isoform, or with tags, fused parts or gaps): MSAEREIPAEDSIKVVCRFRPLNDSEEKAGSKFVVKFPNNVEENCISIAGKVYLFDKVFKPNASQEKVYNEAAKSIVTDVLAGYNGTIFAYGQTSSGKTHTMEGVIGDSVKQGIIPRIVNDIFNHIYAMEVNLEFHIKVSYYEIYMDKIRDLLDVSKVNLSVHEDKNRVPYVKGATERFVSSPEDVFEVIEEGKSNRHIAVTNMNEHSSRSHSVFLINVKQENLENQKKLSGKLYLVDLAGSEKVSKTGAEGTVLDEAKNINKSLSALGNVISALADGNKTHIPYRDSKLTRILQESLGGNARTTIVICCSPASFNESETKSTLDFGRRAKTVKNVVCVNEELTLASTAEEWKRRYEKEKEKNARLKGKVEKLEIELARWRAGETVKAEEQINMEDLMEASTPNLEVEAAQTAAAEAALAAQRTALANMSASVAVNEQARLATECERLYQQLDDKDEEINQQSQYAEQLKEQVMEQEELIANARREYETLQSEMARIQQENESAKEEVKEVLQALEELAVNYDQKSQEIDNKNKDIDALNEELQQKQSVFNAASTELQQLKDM

- half-site mantADP release (stopped flow): share of motors releasing mantADP from both heads upon the addition of MTs: 16%
Substance: DmK-4AA (from UniProt P17210 1-559) (domain or fragment)
